Results as given in article doi:10.1101/2022.11.23.517371.

Target: nicotinate-nucleotide pyrophosphorylase (NMnPP) (Saccharomyces cerevisiae S288c) (UniProt P43619)
Assay: negative-stain TEM

stoichiometry N: 6
Substance: nicotinate-nucleotide pyrophosphorylase (NMnPP) (from UniProt P43619 1-295) (enzyme)
